Assay results taken from paper PMC4503349.

Target: Recombinant human calcineurin, comprising CnAα and CnB subunits (human) (UniProt Q08209)

CaN phosphatase activity (malachite green, RIIP substrate) in a Ca2+/CM cross-titration; CaN:CM ratio that gives 50% activation at 500 μM Ca2+ (molar ratio (CaN:CM)): 1
Substance: calmodulin (from UniProt P0DP23 1-149) (natural protein)
